In IntAct's records for PubMed 14528310:

Molecular target: Homer1, Q9Z214-1
Sequence (Q9Z214 whole entry): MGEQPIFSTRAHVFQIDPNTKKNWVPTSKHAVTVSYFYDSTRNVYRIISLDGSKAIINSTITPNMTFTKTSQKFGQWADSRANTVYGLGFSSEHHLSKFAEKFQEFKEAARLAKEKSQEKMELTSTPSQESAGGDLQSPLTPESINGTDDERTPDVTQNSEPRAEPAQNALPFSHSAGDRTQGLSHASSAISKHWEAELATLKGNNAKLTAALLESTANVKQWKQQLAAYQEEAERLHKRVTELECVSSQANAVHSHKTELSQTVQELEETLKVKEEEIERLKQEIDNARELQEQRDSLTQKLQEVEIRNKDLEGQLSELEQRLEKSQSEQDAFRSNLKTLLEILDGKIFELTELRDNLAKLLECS

- effect of a mutation on the interaction: disrupting interaction
Substance: Arf-GAP with GTPase, ANK repeat and PH domain-containing protein 2 (Rattus norvegicus (Rat)), Q8CGU4 P187L
